Reference: patent US20030120037A1 (published 2003)
Blank lines part the entries; values can stand above or below the molecule they belong to.

Experiments:
[1] = biological target: FPRL1, seven-transmembrane G-protein coupled receptor (human) (UniProt P25090); assay: cell-based or functional assay
[2] = biological target: T1, FPRL1, seven-transmembrane G-protein coupled receptor (human, UniProt P25090 1-351); assay: radioligand binding on FPRL1/293 cells; 16 nM 125I-SAA with increasing unlabeled SAA; LIGAND analysis; FPRL1/293 cells; saturation/LIGAND estimate, 42000 sites/cell
T1 construct: whole, on cells; also called FPRH2; LXA4R
T1 sequence (looked up): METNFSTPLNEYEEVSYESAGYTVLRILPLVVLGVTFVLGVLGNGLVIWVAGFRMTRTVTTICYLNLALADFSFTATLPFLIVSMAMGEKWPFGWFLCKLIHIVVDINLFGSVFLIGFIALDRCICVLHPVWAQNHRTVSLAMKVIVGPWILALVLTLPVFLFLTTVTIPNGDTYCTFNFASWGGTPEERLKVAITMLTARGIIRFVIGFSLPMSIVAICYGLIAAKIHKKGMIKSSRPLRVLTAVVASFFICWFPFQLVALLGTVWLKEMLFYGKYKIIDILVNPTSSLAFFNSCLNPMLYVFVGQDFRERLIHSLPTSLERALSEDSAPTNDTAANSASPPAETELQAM

[3] = biological target: T2, FPR, classical formyl peptide receptor (human, UniProt P21462 1-350); assay: binding of radiolabeled SAA to receptor-transfected cells
T2 construct: whole, on cells; also called FPR/293 cells
T2 sequence (looked up): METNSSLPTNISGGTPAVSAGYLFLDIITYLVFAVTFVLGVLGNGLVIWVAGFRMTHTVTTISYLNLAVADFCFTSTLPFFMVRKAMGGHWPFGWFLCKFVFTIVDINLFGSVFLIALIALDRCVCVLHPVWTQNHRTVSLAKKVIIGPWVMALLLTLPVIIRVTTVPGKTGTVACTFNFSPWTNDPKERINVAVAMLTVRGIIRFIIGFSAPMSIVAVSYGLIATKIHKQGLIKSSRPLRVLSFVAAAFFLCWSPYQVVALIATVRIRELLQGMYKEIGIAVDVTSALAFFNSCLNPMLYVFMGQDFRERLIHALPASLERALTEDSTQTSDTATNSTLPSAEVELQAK

[4] = biological target: T1, FPRL1, seven-transmembrane G-protein …; assay: Homologous displacement binding on human monocytes (native cells): constant 125I-SAA plus increasing unlabeled SAA, LIGAND/Scatchard analysis. The filing names FPRL1 as the SAA receptor on phagocytes; the receptor on monocytes is not isolated in this panel.
[5] = biological target: T1, FPRL1, seven-transmembrane G-protein …; assay: displacement of 125I-SAA from FPRL1/293 cells by unlabeled SAA (the same value is told for monocytes and neutrophils); homologous displacement of 125I-SAA by unlabeled SAA; FPRL1/293 cells

Molecule: N-formyl-methionyl-leucyl-phenylalanine (peptide)
Ca2+ mobilization in FPRL1 transfected cells (FPRL1/293 cells) [1]: 10 µM

Kd [2]: 64 nM
binding result [3]: no binding
Kd [4]: 34 nM
B1: 125I-labeled recombinant human serum amyloid A (ligand)
chain: MRSFFSFLGEAFDGARDMWRAYSDMREANYIGSDKYFHARGNYDAAKRGPGGVWAAEAISNARENIQRFFGRGAEDSLADQAANEWGRSGKDPNHFRPAGLPEKY
modifications: radio-iodinated on tyrosine and lysine residues with the chloramine T method (125I)
notes: specific activity 5.8 mCi/mg; also called radioiodinated SAA

IC50 [5]: ~50 nM
B2: Recombinant human (rh) serum amyloid A (SAA) (ligand)
chain: B1 chain
notes: Bought from Pepro Tech; also called rhSAA; unlabeled SAA
